The record followed here is US20230027238A1 (SPECTRUM PHARMACEUTICALS, published 2023).

Assay [1] addresses GLP-1R on CHO cells (CHO/GLP-1R). The assay is described as follows: cell-based or functional assay.
The target of assay [2] is T1, Fc fragment of eflapegrastim (human, UniProt P01861 107-325 = IgG part, aglycosylated (made in recombinant E. coli cells)).
T1 construct: tested alone, without PEG and G-CSF; also called aglycosylated IgG4-Fc fragment; immunoglobulin Fc fragment
The assay is described as follows: ELISA with GST-FcγRIIB, detection with anti-GST antibody. Here is the method:
For C1q, FcγRIIB, FcγRIIIA, and FcRn binding assays, serial dilutions of the test materials were added to 96-well microplates coated with C1q, or GST fusion proteins of FcγRIIB or FcγRIIIA, or FcRn αβ2. After incubation and washing, HRP-conjugated anti-C1q antibody was added for C1q binding assay, and rabbit-anti-GST antibody and HRP-conjugated anti-rabbit IgG antibody were sequentially added for FcγRIIB, FcγRIIIA, and FcRn binding assays. The absorbance was measured at 450 nm as described above for FcγRI binding assay.
Background: An ELISA detects its analyte on a solid surface through an enzyme-linked reagent.

Assay [3] has as its target T2, Chinese hamster ovary (CHO) cell-derived soluble recombinant human G-CSF receptor (human, UniProt Q99062 25-627).
T2 construct: extracellular domain; Immobilised by amine coupling on the sensor chip; also called soluble human G-CSF receptor; R&D Systems 381-050/CF
T2 sequence (looked up): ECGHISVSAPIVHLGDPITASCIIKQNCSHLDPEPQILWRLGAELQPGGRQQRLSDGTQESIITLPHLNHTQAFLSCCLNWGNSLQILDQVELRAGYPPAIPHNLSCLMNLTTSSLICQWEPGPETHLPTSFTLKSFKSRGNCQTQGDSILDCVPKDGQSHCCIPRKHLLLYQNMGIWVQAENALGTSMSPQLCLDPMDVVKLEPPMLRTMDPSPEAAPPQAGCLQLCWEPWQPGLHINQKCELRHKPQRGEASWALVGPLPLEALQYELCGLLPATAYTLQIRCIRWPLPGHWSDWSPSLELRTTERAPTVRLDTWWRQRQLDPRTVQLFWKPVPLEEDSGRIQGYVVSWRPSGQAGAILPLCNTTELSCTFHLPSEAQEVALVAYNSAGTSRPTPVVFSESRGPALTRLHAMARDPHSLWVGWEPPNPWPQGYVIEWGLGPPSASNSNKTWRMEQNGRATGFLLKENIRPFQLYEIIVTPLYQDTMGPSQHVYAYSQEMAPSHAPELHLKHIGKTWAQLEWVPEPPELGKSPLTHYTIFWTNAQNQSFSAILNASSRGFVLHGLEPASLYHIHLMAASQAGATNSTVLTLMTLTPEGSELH
The assay is described as follows: SPR (BIAcore 3000), receptor amine-coupled to the chip, analyte 6.25-100 nmol/L, 25 °C, 1:1 Langmuir fit. Background: SPR reads the build-up and loss of mass on a sensor chip optically.
From the text: Surface plasmon resonance technology and the BIAcore 3000 biosensor (GE healthcare) were employed to measure in vitro binding affinity to the G-CSF receptor. Amine-coupling chemistry was used to immobilize the G-CSF receptor on CMS biosensor chip. […] The CMS sensor chip surface was activated by injecting a 1:1 mixture of 0.1 mol/L N-hydroxysuccinimide (GE healthcare) and 0.1 mol/L 3-(N,N-dimethylamino)propyl-N-ethylcarbodiamide (GE Healthcare). […] The chip surface was then blocked with ethanolamine/HCl (GE Healthcare), pH 8.5, and washed with a regeneration solution (50 mmol/L NaCl; 5 mmol/L NaOH). […] Binding affinity was calculated using the 1:1 Langmuir fitting model for each test material.

T1 sequence (P01861 other isoform, or with tags, fused parts or gaps limits assumed): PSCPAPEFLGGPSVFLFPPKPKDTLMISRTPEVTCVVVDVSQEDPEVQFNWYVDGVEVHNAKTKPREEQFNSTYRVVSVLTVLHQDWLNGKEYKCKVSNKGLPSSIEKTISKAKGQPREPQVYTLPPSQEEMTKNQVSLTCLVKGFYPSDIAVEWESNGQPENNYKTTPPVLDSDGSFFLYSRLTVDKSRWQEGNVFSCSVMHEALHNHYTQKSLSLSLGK

With “CA Exendin (lysine)-PEG-(lysine) Fc (Fc fusion)”, in assay [1], the % vs. Experimental group, CHO/GLP-1R bioassay amounted to 16.1% and the EC50 (ng/ml), in vitro activity-CHO/GLP-1R bioassay was 59000 ng/mL.

B1: GST fusion protein of FcγRIIB (receptor, UniProt P31994 43-217, looked up)
chain: TPAAPPKAVLKLEPQWINVLQEDSVTLTCRGTHSPESDSIQWFHNGNLIPTHTQPSYRFKANNNDSGEYTCQTGQTSLSDPVHLTVLSEWLVLQTPHLEFQEGETIVLRCHSWKDKPLVKVTFFQNGKSKKFSRSDPNFSIPQANHSHSGDYHCTGNIGYTLYSSKPVTITVQAP
notes: Order of receptor and GST unknown; not shown: GST
As to B1, in assay [2], the binding result was “no binding”.

B2: pegfilgrastim (ligand, human, UniProt P09919-2 31-204, looked up)
chain: TPLGPASSLPQSFLLKCLEQVRKIQGDGAALQEKLCATYKLCHPEELVLLGHSLGIPWAPLSSCPSQALQLAGCLSQLHSGLFLYQGLLQALEGISPELGPTLDTLQLDVADFATTIWQQMEELGMAPALQPTQGAMPAFASAFQRRAGGVLVASHLQSFLEVSYRVLRHLAQP
modifications: N-terminal methionine residue pegylated with a 20 kDa polyethylene glycol
notes: Commercial product; also called Neulasta
Take B2: the Kd (as a rule, a measure of binding affinity in units of concentration) in assay [3] came out at 2.9 nM.
